In patent US20230212266A1 (FRED HUTCHINSON CANCER CENTER, published 2023):

Experiments:
[1] = target: T1, SARS-CoV-2 receptor binding domain (RBD) (SARS-CoV-2, UniProt P0DTC2 319-591); experiment: BLI: mAb on anti-human Fc probe, dipped in the antigen
[2] = target: T1, SARS-CoV-2 receptor binding domain (RBD); experiment: as above; remark: listed apart in the source
[3] = target: T1, SARS-CoV-2 receptor binding domain (RBD); experiment: as above; remark: listed apart in the source
[4] = target: T1, SARS-CoV-2 receptor binding domain (RBD); experiment: as above; remark: listed apart in the source
[5] = target: T1, SARS-CoV-2 receptor binding domain (RBD); experiment: as above; remark: listed apart in the source
[6] = target: T1, SARS-CoV-2 receptor binding domain (RBD); experiment: as above; remark: listed apart in the source
[7] = target: T1, SARS-CoV-2 receptor binding domain (RBD); experiment: as above; remark: listed apart in the source
[8] = target: T1, SARS-CoV-2 receptor binding domain (RBD); experiment: as above; remark: listed apart in the source
[9] = target: T1, SARS-CoV-2 receptor binding domain (RBD); experiment: as above; remark: listed apart in the source
[10] = target: T1, SARS-CoV-2 receptor binding domain (RBD); experiment: as above; remark: listed apart in the source
[11] = target: T1, SARS-CoV-2 receptor binding domain (RBD); experiment: BLI, mAb on anti-human Fc probe, antigen in solution
[12] = target: T1, SARS-CoV-2 receptor binding domain (RBD); experiment: as above; remark: listed apart in the source
[13] = target: T1, SARS-CoV-2 receptor binding domain (RBD); experiment: as above; remark: listed apart in the source
[14] = target: T1, SARS-CoV-2 receptor binding domain (RBD); experiment: as above; remark: listed apart in the source
[15] = target: T1, SARS-CoV-2 receptor binding domain (RBD); experiment: as above; remark: listed apart in the source
[16] = target: T1, SARS-CoV-2 receptor binding domain (RBD); experiment: as above; remark: listed apart in the source
[17] = target: T1, SARS-CoV-2 receptor binding domain (RBD); experiment: as above; remark: listed apart in the source
[18] = target: T1, SARS-CoV-2 receptor binding domain (RBD); experiment: as above; remark: listed apart in the source

B1: CV2-70 (antibody, V domains shown)
VH: QVQLVQSGAEVKKPGSSVKVSCKASGGTFSSYAITWVRQAPGQGLEWMGGIIPIFGTANYAQKFQGRLTITADDSTSTAYMELSSLKSEDTAVYYCARFRAYDSSGYGPDYWGQGTLVTVSS
VL: EIVLTQSPATLSLSPGERATLSCRASQSVSSYLAWYQQKPGQAPRLLIYDASNRATGIPARFSGSGSGTDFTLTISSLEPEDFAVYYCQQRSNWPPSITFGQGTRLEIK
[1]
  binding result: no binding

B2: CV2-60 (antibody, V domains shown)
VH: QVQLVQSGAEVKKPGASVKVSCKASGYNFISYGISWVRQAPGQGLEWMGWISAYNGNTNYAQKLQGRVTMTTDTSTSTAYMELRSLRSDDTAVYYCARVRIFGVVIIVDTAMVLDYWGQGTLVTVSS
VL: QSVLTQPPSVSAAPGQKVTISCSGSSSNIGNNYVSWYQQLPGTAPKLLIYENNKRPSGIPDRFSGSKSGTSATLGITGLQTGDEADYYCGTWDSSLSAGVFGGGTKLTVL
[2]
  binding result: no binding

B3: CV2-62 (antibody, V domains shown)
VH: EVQLVESGGGLVQPGGSLRLSCAASGFTFSSYEMNWVRQAPGKGLEWVSYISSSGSTIYYADSVKGRFTISRDNAKNSLYLQMNSLRAEDTAVYYCARVPRPPWDDFWSGYLYYFDYWGQGTLVTVSS
VL: DIQMTQSPSSLSASVGDRVTITCRASQGISNYLAWYQQKPGKVPKLLIYAASTLQSGVPSRFSGSGSGTDFTLTISSLQPEDVATYYCQKYNSAPPGFTFGPGTKVDIK
[3]
  binding result: no binding

B4: CV2-63 (antibody, V domains shown)
VH: QVQLVESGGGVVQPGRSLRLSCAASGFTFSSYAMHWVRQAPGKGLEWVAVISYDGDNKYYADSVKGRFTISRDNSKNTLYLQMNSLRAEDTAVYYCARDPTAVTGPFDYWGQGTLVTVSS
VL: SYELTQPLSVSVALGQTARITCGGNNIGSKNVHWYQQKPGQAPVLVIYRDSNRPSGIPERFSGSNSGNTATLTISRAQAGDEADYFCQVWDSSTVVFGGGTKLTVL
[4]
  binding result: no binding

B5: CV2-64 (antibody, V domains shown)
VH: QLQLQESGPGLVKPSETLSLTCTVSGGSISSSSYYWGWIRQPPGKGLEWIGSIYYSGSTYYNPSLKSRVTISVDTSKNQFSLKLSSVTAADTAVYYCARLSGIFGVVIIPGFFDYWGQGTLVTVSS
VL: not shown
[5]
  binding result: no binding

B6: CV2-67 (antibody, V domains shown)
VH: QVQLQESGPGLVKPSETLSLTCTVSGGSISSYYWSWIRQPPGKGLEWIGYIYYSGSTNYNPSLKSRVTISVDTSKNQFSLKLSSVTAADTAVYYCAGTYYDFWSGSTNYYGMDVWGQGTTVTVSS
VL: not shown
[6]
  binding result: no binding

B7: CV2-69 (antibody, V domains shown)
VH: EVQLLESGGGLVQPGGSLKLSCAASGFTFNSYAMTWVRQAPGKGLEWLSTISGSGGRTYYADSVKGRFAISRDNSKNTVFLQMSTLRAEDTAVYFCARDFYGLESFYPGIDSWGQGTLVTVSS
VL: SYELTQPSSVSVFPGQTARITCSGDVLEKKYARWFQQKPGQAPLLVIYKDSERPSGIPERFFGSSSGTTVTLTISGAQVEDEADYYCYSAADNNRGVFGGGTKLTVL
[7]
  binding result: no binding

B8: CV2-72 (antibody, V domains shown)
VH: EVQLVESGGGLVQPGGSLRLSCAASGFTVSTNYMSWVRQAPGKGLEWVSVIYSGGSTYYVDSVKGRFTISRDNSKNTLYLQMNSLRAEDTAVYYCASTNSGSYSHVFDIWGQGTMVTVSS
VL: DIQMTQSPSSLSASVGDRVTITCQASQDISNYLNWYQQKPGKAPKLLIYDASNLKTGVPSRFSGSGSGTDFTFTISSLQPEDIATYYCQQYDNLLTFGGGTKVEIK
[8]
  binding result: no binding

B9: CV2-73 (antibody, V domains shown)
VH: QVQLQESGPGLVKPSETLSLTCTVSGGSVSSGSYYWSWIRQPPGKGLEWIGYIYYSGSTNYKYSLKSRVTISVDTSKNQFSLKLSSVTAADTAVYYCAREKGGTEWEFNDAFDIWGQGTMVTVSS
VL: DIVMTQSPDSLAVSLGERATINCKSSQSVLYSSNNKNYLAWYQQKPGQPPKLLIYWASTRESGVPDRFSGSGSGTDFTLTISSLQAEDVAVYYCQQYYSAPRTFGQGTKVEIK
[9]
  binding result: no binding

B10: CV2-74 (antibody, V domains shown)
VH: EVQLVQSGAEVKKPGESLRISCKGSGYSFTSYWISWVRQMPGKGLEWMGRIDPSDSYTNYSPSFQGHVTISADKSISTASLQWSSLKASDTAMYYCARQKRDGTTWAFDYWGQGTLVTASS
VL: not shown
[10]
  binding result: no binding

B11: CV15 (antibody, V domains shown)
VH: EVQLVESGGGLVQPGGSLRLSCAASGFTFSSYWMSWVRQAPGKGLEWVANIKQDGSEKYYVDSVKGRFTISRDNAKNSLYLQMNSLRAEDTAVYYCARDFNSYQLLWYYYYGMDVWGQGTTVTVSS
VL: QSALTQPRSVSGSPGQSVTISCTGTSSDVGGYNYVSWYQQHPGKAPKLMIYDVSKRPSGVPDRFSGSKSGNTASLTISGLQAEDEADYYCCSYAGSYTWVFGGGTKLTVL
notes: expressed as IgG
[11]
  binding result: no binding

B12: CV17 (antibody, V domains shown)
VH: not shown
VL: QSALTQPASVSGSPGQSITISCTGTSSDVGSYNLVSWYQQHPGKAPKLMIYEGSKRPSGVSNRFSGSKSGNTASLTISGLQAEDEADYYCCSYAGSSTYVFGTGTKVTVL
notes: expressed as IgG
[12]
  binding result: no binding

B13: CV18 (antibody, V domains shown)
VH: QVQLVQSGAEVKKPGASVKVSCKVSGYTLTELSMHWVRQAPGKGLEWMGGFDPEDGETIYAQKFQGRVTMTEDTSTDTAYMELSSLRSEDTAVYYCATTSPIVGAITWFDPWGQGTLVTVSS
VL: QSVLTQPPSVSAAPGQKVTISCSGSSSNIGNNYVSWYQQLPGTAPKLLIYDNNKRPSGIPDRFSGSKSGTSATLGITGLQTGDEADYYCGTWDSSLSAGPVFGGGTKLTVL
notes: expressed as IgG
[13]
  binding result: no binding

B14: CV2 (antibody, V domains shown)
VH: QVQLVESGGGVVQPGRSLRLSCAASGFTFSSYAMHWVRQAPGKGLEWVAVISYDGSNKYYADSVKGRFTISRDNSKNTLYLQMNSLRAEDTAVYYCARVRGSYYLFDYWGQGTLVTVSS
VL: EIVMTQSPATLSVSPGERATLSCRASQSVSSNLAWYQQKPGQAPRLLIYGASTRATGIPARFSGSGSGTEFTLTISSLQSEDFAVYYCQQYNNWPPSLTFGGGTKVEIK
notes: expressed as IgG
[14]
  binding result: no binding

B15: CV21 (antibody, V domains shown)
VH: not shown
VL: EIVLTQSPATLSLSPGERATLSCRASQSVSSYLAWYQQKPGQAPRLLIYDASNRATGIPARFSGSGSGTDFTLTISSLEPEDFAVYYCQQRSNWPLTFGGGTKVEIK
notes: expressed as IgG
[15]
  binding result: no binding

B16: CV22 (antibody, V domains shown)
VH: EVQLVESGGGLVKPGGSLRLSCAASGFTFSSYSMNWVRQAPGKGLEWVSSISSSSSYIYYADSVKGRFTISRDNAKNSLYLQMNSLRAEDTAVYYCARDRESYDILTGYSMEGCFDYWGQGTLVTVSS
VL: QLVLTQSPSASASLGASVKLTCTLSSGHSSYAIAWHQQQPEKGPRYLMKLNSDGSHSKGDGIPDRFSGSSSGAERYLTISSLQSEDEADYYCQTWGTGIRVFGGGTKLTVL
notes: expressed as IgG
[16]
  binding result: no binding

B17: CV23 (antibody, V domains shown)
VH: QVQLVQSGAEVKKPGASVKVSCKASGYTFTSYAMHWVRQAPGQRLEWMGWINAGNGNTKYSQKFQGRVTITRDTSASTAYMELSSLRSEDTAVYYCARVWGYCSGGSCYVDAFDIWGQGTMVTVSS
VL: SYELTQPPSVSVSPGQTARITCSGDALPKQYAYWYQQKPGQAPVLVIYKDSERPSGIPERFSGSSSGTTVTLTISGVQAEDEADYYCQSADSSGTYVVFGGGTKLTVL
notes: expressed as IgG
[17]
  binding result: no binding

B18: CV25 (antibody, V domains shown)
VH: QVQLQESGPGLVKPSQTLSLTCTVSGGSISSGDYYWSWIRQPPGKGLEWIGYIYYSGSTYYNPSLKSRVTISVDTSKNQFSLKLSSVTAADTAVYYCARDHHYDFWSGYSSYYYYGMDVWGQGTTVTVSS
VL: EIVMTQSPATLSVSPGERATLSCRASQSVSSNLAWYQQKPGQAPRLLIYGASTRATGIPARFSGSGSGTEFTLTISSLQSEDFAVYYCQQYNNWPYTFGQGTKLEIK
[18]
  binding result: no binding
